Consider one molecule from article PMC2924587 (2010).

The target in this test is Protein phosphatase 1 alpha 7-330 (Homo sapiens, UniProt P62136). Nature of the test: ITC. (In general: Isothermal titration calorimetry measures the heat released or taken up as one component is titrated into another.)
Protein phosphatase 1 alpha 7-330, sequence (P62136 7-330): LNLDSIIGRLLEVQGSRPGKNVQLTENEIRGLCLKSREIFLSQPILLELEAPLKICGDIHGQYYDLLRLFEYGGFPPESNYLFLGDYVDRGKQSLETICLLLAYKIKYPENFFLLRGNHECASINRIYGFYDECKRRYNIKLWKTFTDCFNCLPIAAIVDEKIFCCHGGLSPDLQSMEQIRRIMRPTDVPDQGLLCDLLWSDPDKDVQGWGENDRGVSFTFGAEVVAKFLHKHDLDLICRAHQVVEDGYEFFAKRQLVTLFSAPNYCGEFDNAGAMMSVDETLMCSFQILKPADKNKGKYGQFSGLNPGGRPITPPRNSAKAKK

B1: Spinophilin 417-583 (protein)
chain: not shown
As usually defined, the Kd is the equilibrium constant for the complex coming apart. A lower Kd goes with a tighter complex. Turning to B1, the Kd was 8.7 nM.
